# Assay: soluble on expression in E. coli; label from the status in PepcDB or PDB records
row,Sequence,soluble on expression in E. coli
1,SHVEYSRITKFFQEQPLEGYTLFSHRSAPNGFKVAIVLSELGFHYNTIFLDFNLGEHRAPEFVSVNPNARVPALIDHGMDNLSIWESGAILLHLVNKYYKETGNPLLWSDDLADQSQINAWLFFQTSGHAPMIGQALHFRYFHSQKIASAVERYTDEVRRVYGVVEMALAERREALVMELDTENAAAYSAGTTPMSQSRFFDYPVWLVGDKLTIADLAFVPWNNVVDRIGINIKIEFPEVYKWTKHMMRRPAVIKALRGE,soluble
2,SIDKNFWQGKRVFVTGHTGFKGSWLSLWLTEMGAIVKGYALDAPTVPSLFEIVRLNDLMESHIGDIRDFEKLRSSIAEFKPEIVFHMAAQPLVRLSYEQPIKTYSTNVMGTVHLLETVKQVGNIKAVVNITSDKCYDNREWVWGYRENEPMGGYDPYSNSKGCAELVASAFRNSFFNPANYEQHGVGLASVRAGNVIGGGDWAKDRLIPDILRSFENNQQVIIRNPYSIRPWQHVLEPLSGYIVVAQRLYTEGAKFSEGWNFGPRDEDAKTVEFIVDKMVTLWGDDASWLLDGENHPHEAHYLKLDCSKANMQLGWHPRWGLTETLSRIVKWHKAWIRGEDMLICSKREISDYMSATTR,soluble
3,SKEFFAPQRAGMKLRTFSDIDKYYTEQKKQEYHKEKVRVVAMAQVARERVRVAVNEHLNQKKYATQKLIEENKETIQNSLRQVWQNRFNYLEKARERKALFLKEKSQKASERLLVQNLNNERTLLTRGLLKIDRLEKNEAVLKEKSLIVKQKLKAEKYRKNLLKEMKKVRSQEIYKRHCEEKFVMDMIAFEKACERLQDAKTKVAIVKTNLDFKVPNGLIK,soluble
4,SKNAVANSSSSEPAVSQTENASSSLEHENKARELASDAQANKTQELAPDSRQESLAPQEPFIDINRMLDSLSGDEGAVRMLLEVFIQDHAEDGSKLHKLLNEDIDNAQRAAHSLKGVSGSLGAMPLHYISGEIELLIKQGKEVPDNKLCQLRDVLQQTTLFAEKVLNSEKIREVLTD,not soluble
5,SKSINVDQISIRSLSEPANPFSFWQWIFIYLPGLKEDEKQEILTHEQTHVRQWHSIDVIISEIVNIICWMNPFAWLLKTEIRLNLEYLADHKVMESGTNKKAYQYHLLGLA,not soluble
6,SKVALITGVTGQDGSYLAEFLLEKGYEVHGIKRRASSFNTERVDHIYQDPHTCNPKFHLHYGDLSDTSNLTRILREVQPDEVYNLGAMSHVAVSFESPEYTADVDAMGTLRLLEAIRFLGLEKKTRFYQASTSELYGLVQEIPQKETTPFYPRSPYAVAKLYAYWITVNYRESYGMYACNGILFNHESPRRGETFVTRKITRAIANIAQGLESCLYLGNMDSLRDWGHAKDYVKMQWMMLQQEQPEDFVIATGVQYSVRQFVEMAAAQLGIKLRFEGTGVEEKGIVVSVTGHDAPGVKPGDVIIAVDPRYFRPAEVETLLGDPTKAHEKLGWKPEITLREMVSEMVANDLEAAKKHSLLKSHGYDVAIALES,soluble
7,SLAVDQTRYIFRGDKDALTITVTNNDKERTFGGQAWVDNIVEKDTRPTFVVTPSFFKVKPNGQQTLRIIMASDHLPKDKESVYWLNLQDIPPALEGSGIAVALRTKLKLFYRPKALLEGRKGAEEGISLQSRPDGRTMLVNTTPYIFAIGSLLDGNGKKIATDNGTTQKLLMFMPGDEVQVKGNVVKVDSLNDYGELQTWTINKKKPAAPEAAKAEKADTAEQK,soluble
8,SLDGAHKMARVWVGILNWSLKHIVGLKYRIIGAENIPDRPAVICAKHQSGWETLALQDIFPPQVYVAKRELFKIPFFGWGLKLVKTIGIDRNNRREANEQLIKQGLVRKNEGYWITIFPEGTRLAPGKRGKYKLGGARMAKMFEMDIVPVALNSGEFWPKNSFLKYPGEITVVICPTIPHASGSEAELMEKCEHLIETQQPLISGAGPFAAKMPSETAEG,soluble
9,SLEPIGRSLQGVTGRPDFQKRLEQMKEKVMKDQDVQAFLKENEEVIDQKMIEKSLNKLYEYIEQSKNCSYCSEDENCNNLLEGYHPKLVVNGRSIDIEYYECPVKRKLDQQKKQQSLMKSMYIQQDLLGATFQQVDISDPSRLAMFQHVTDFLKSYNETGKGKGLYLYGKFGVGKTFMLAAIANELAEKEYSSMIVYVPEFVRELKNSLQDQTLEEKLNMVKTTPVLMLDDIGAESMTSWVRDEVIGTVLQHRMSQQLPTFFSSNFSPDELKHHFTYSQRGEKEEVKAARLMERILYLAAPIRLDGENRRHP,soluble
10,SLESEGRSPIFTHLVTSLKGLWTLRAFGRQPYFETLFHKALNLHTANGGAMFSLIYKKTLKLSSRVLDKISIGQLVSLLSNNLNKFDEGGGGAINKIQDFLQKQEYKTLEYNLTTTEVVMENVTAFWEEGFGELFEKAKQNNNNRKTSNGDDSLFFSNFSLLGTPVLKDINFKIERGQLLAVAGSTGAGKTSLLMMIMGELEPSEGKIKHSGRISFCSQFSWIMPGTIKENIIFGVSYDEYRYRSVIKACQLEEDISKFAEKDNIVLGEGGITLSGGQRARISLARAVYKDADLYLLDSPFGYLDVLTEKEIFESCVCKLMANKTRILVTSKMEHLKKADKILILHEGSSYFYGTFSELQNLQPDFSSKLMG,soluble
11,SLFHLLGAQQNQKLKRRRFFCPVCGGELAVKLGLQKAPHFAHKQNKSCAIDIEPESAYHLEGKRQLYVWLKTQRASPILEPYIRTINQRPDVMARIKEHMLAVEYQCATIAPDVFQKRTEGFKQEGIIPQWIMGYSRLKRTASSFYQLSTFHWQFINASPYRELICYCPERRSFLRLSHIIPFYTNHSYSSVQTIPIHRAGAGDLFFTEPKPSIQYSGWTKAIHRFRHKPHRFNSKETNRLRLLFYEKRQTPFSFLPTEVFVPVRKGAVFKSPVFVWQGFLYLFMTDLGGKRAPIRFSAVLQQCKLHIHNKNIALRSECSEECLSEAVKQYIDFLCKKGFLRETQKEVYVLNQPAGGIHSMQDLIERDRSCFIE,soluble
12,SLGKKIETHLEDMVAQANAQLKLTAPESNLEVSYQNYHRGVFSSQLQLLVKPIAGKENPWIKSGQSVIFNESVDHGPFPLAQLKKLNLIPSMASIQTTLVNNEVSKPLFDMAKGETPFEINSRIGYSGDSSSDISLKPLNYEQKDEKVAFSGGEFQLNADRDGKAISLSGEAQSGRIDAVNEYNQKVQLTFNNLKTDGSSTLASFGERVGNQKLSLEKMTISVEGKELALLEGMEISGKSDLVNDGKTINSQLDYSLNSLKVQNQDLGSGKLTLKVGQIDGEAWHQFSQQYNAQTQALLAQPEIANNPELYQEKVTEAFFSALPLMLKGDPVITIAPLSWKNSQGESALNLSLFLKDPATTKEAPQTLAQEVDRSVKSLDAKLTIPVDMATEFMTQVAKLEGYQEDQAKKLAKQQVEGASAMGQMFRLTTLQDNTITTSLQYANGQITLNGQKMSLEDFVGMFAMPALNVPAVPAIPQQ,soluble
13,SLGMDEKSVAIVFPHHLLEDHPAAGKTSGFILVEDQLFFGDPVFGLRFHKNKLVLHRASMRYYHDHLKSRGLKAEYIQYSPDPHMGYLRDHLEGYDRVYTLELLDHELEARMKKLSMELGLEITEIEAPFIFRRNLMDGYFRDGRFLLRSFYIRERKRLSILMENSRPAGGKWTFDTENRKRMPPDLQVPAPVKLPENEYVQEAKEYVSEKFPDNPGSMDRFNYP,not soluble
14,SLHAQTFHSDSLLSQEEAAAAGDRRPAPDTWIYPLIQMKPFEIQIDEIVTETLLMEAERGAKVFLTTGYFNLTQAYMDLVLGTRAEYQILLASPEVNGFFGAKGVAGAIPAAYVHIERQFYSEVCSLGQQDRVQLQEYWRRGWTFHAKGLWLYLAGSSLPCLTLIGSPNFGYRSVHRDLEAQIAIVTESRSLQQQLHQEQEQLYLRSGVVTSATFEQPGRQVKLWVKMVTPLIKNFF,soluble
15,SLHIDVNNALNRAELVHSALFHEVDAIDSFCADWAEWDDTYNFVLNRNMDYVESNLVDETFPTLNVNYIVYLDRNGEVVLAKGYDLENETAMNPSQPLIERFRELSARNDLDVKKGFLRFDNSIYAFSARPILRSDETGPYAGTLIFARIVDDSFIQSPSKIAGLSFKILPVPKEKSVKFVNESALLVEFPLEDYSGRVVGTIEFYAEREALG,soluble
16,SLHIQRKSTMSKCSADETPVCCCMDVGTIMDNSDCTASYSRVFANRAEAEQTLAALTEKARSVESEPCKITPTFTEESDGVRLDIDFTFACEAEMLIFQLGLR,soluble
17,SLIDFHFHAPVKEFLDFLGEFGEPAIKYFNAKVEVKGLKETLDYYESFGIKRFVVLPIDSTTFLGRRIPNQVINLDDRIVKFISVDPSKPNADEELKRSIKEFEPVGVKLHPQLQGFHPLDERALKIYEIIDNHGLIVVFHTGTSGIGAGVKSSIRLDYGRPIYFDEIAVRFQNMKIILAHFGWPWTEEAIAIALHKPNVYLDLSGWAPRYIPQVIWSNAKRLSDKLLFGSDFPLIRPERWLEEFKSVNLSQDIKDKILKHNAEKLVKKS,soluble
18,SLKINQEEDTVSSEKNKLCDNNNNNNMVHTRHIYNVCELNKCLRENKLIPYNNIYKMKHLYLNILDTFDENILKHVNKAHLFIDSVIQKKKNILIHCMAGISRCSSIILSYVSKKNKKGIEYNFNLLKSKYPFAHPNENFYRQLLLYEKMNYTLDGCTDYHNIYK,soluble
19,SLKYCIHNTRLIIGIADRVIENGSILFDQDKILKVSAHSITDADVFIDGTTFSVLPGLIDVHVHLGMDCSVDPFDTMENTEDAFTSFIAYKQGLQFLRAGITTVRNLGTKNNVDIIYKKAVESGLVIGPRVYAAGQPLIMTGGHGQPMGTEVDGKDEVIKATRQRIKEGADLIKIMATGGVLTKGNHPGAVHFNVDELKCICQEAAKASLTTAAHAIGLNGVKNAIKAGVNTIEHGYYLDKETVDTMRDLGIYLTPTLLAPTLLQKNSEHIPQHMIDKIEEIEKEHRKSFRLALERGVKIIAGTDAGTPFNNPGQLVEELKIMLEEGMTTAQAIESATYLGAKCLKVDSLIGSLEEQKLADLIVVKGNPLEDISNLKNIQHVFKGGVRLYPDQIH,soluble
20,SLLCGPLRLSESGETWSEVWAAIPMSDPQVLHLQGGSQDGRLPRTIPLPSCKLSVPDPEERLDSGHVWKLQWAKQSWYLSASSAELQQQWLETLSTAAH,soluble
21,SLLTTCKSVLKLPYLEKIKVVAGEKGLNRIITWVQVVEYPEYSKWLKGGELILISGIAIKNNINSLVNFIRDINSRSLSGIVISIGPYIKEIPKEVIEIGNQLDFPIFEIPFEVKFIDVSQSICKAIFANKVNQESMENFMKDIIFRDFTFSEDILSRAVAYGYNPKTKYISFVVELHNEKDMLECDLKTKQYIEQIVIEVLGEWNKRSIHIMQYNSIILMLPKNEKRTIKNIAMNIIEEIISKAKNTSVNIGVGGEFSELRDFKISVSEAHRCLKVLKLNNDNNTVISYDELGIYKLFFQMDNLEEMKKFYLDVLKKLIDYDSKN,soluble
22,SLMKITRIEAIPYAIPYSRPLKFASGEVSTAEHVLVRIHTDAGICGVADTPPRPYTYGETQDSIVSVVTKVFAPQLIGMDPMDRSKVQQLLGRTVNNPTAKGALDIALWDVIGISLGTPVHKLLGGFSDSMRVSHMLGFKAAAELLEEALRFRETYGIDTFKLKVGRRPLSLDVEACHVLREGLGADTEIYLDANRGWTANEAMEVLRRTEGLGLSMLEEPCDAAEAMGRRRLVQHSSIPIVGDESVPNLGDVSRELLSGGSNAICIKTARSGFTEAQQILGLCEGLGVDVTMGNQIDTQVGSLATVTFGAAFEASSRRAGELSNYLDMTDDLLAEPLEITDGAIRVRKAPGVGAAIDADKLQKY,not soluble
23,SLMKQIKHFNQNYQELRQLGKVAIGRRAGKLKAGTIILFAVDSQGKILAARKMQGVTVLAKFHPLPQYVNEDIHYMDHYHPLVQKENKLTQQAMENAREIYLRVELGNYQETQPLTPLNGAKIQWQLWKNKVQTKLKGSVE,soluble

# Source: the DeepSol protein solubility set
